Laboratory results published in the NTF2 design screens of Basanta et al. (2020).

Experiment: protease stability score; higher = more stable; yeast display proteolysis, trypsin and chymotrypsin;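 also: relative to predicted unfolded state with 0 unfolded-like and 1 meaning tenfold more protease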

Going from “HEEDERIEHFFELYKRSLKTGNEEIIEYLFDPHVRYEQGDWEVHGRTEFIEMLKHLRFHTVRLRDYRLIGDYVHLDIELEGRVGDKNLHVKSTLIALKVDGRWRIHTLEIE” to “TEEQHEARHLFQLWVYSVITGNEHILHNLVDPHYLLDVGDYHVHGREDTLKVLLEARVEDFRVRDVRVYDGRLESDIEFTGHFNGRKINNKVEMTQEKIDGRWYLKRTKVT”, the protease stability score rises from 0.772 to 1.77.

Going from “SEDDKVVEEIARLWLHWVLTGDEEHLRELLDPHVRLHIDGRTYIGREEFLHKFHELRIHRFELKSIHVIGDKAQVDGHQDYKYNGKRIHLDTKVDLVVVDGVMHEIHIHLK” to “DEDEKILEKYIRIETRALKTGNEEERENLADPNTKIDVNGVKIHGMEDWSRKLLKWLRDHGATNDLKFERIKFQGEKVILDGRLHVHYNGVDLEIETIIYFTKYNGKWILKSMEVI”, the protease stability score falls from 1.78 to 0.229.

First: SAEEHAQRVILELLIEAYETGDEDMLRRLFDPNVRIEIGDKDFVGREDFDHLLERVKNVVFHEIRLRDVKVYNGKVEDNGEINIRYGDKSRTHQVKIVMIKVDGRWMLHDFEIK
Second: DKDEEDLRHVLHLLSRAFMTGDEDELTKLMDPDVRIYYGDKRLHGREEVTRWIREIRAWVHDSKIRHIRRQGEKIILHGEMDMIFDQGDKEVRTRTEITIHTTKINGRWLLNELELR
The protease stability score of the first is lower: 1.96 for the first, 2.6 for the second.

Going from “DEETKELEEIMKFYISAFRTGDWRLIEELADPNVRLNVDGREFHGREQFLKHFREELEHLGIDHVHVDHIDIQGEKLIIRLTIHVDGREIHNILILIIVNGRLHEVKWIRV” to “DETRETLERFWHILVRAEKTGDERIFYEMLDPNAQLNVNGRTFHGREILVKIFHEWRVHDSEIREIDIQGDKVDMHVHSDIQVGDKRIRTDMRIIMVKIDGKWLIRTLKVE”, the protease stability score rises from 1.58 to 2.16.

Compared with “DEESRLIEEFIKKVTHALRTGDEHRMHHLLDPHVRFYIGDKFLIGRENMAHLIRWLIEHLGVDHTHLESSSIINGKSFLDTRMHVDGQEIEVRFIIVLFDGVVNRVHYQIE”, “SEDEKENREWKRLLIEAHMTGDEHFLSRQLDPNVLVIVNGQEKVGREEAERELKEWLDKVKGLRIRRFDTESEEFVDGRLHSNLKLDGIINGRRTELDIHVISVKIDGQWQIRQIFFV” is higher in protease stability score: 1.1 for the first, 1.44 for the second.

First: DEDTKRVEELMELWIEIWRTGDFKMLHHLLDPNVLLHVDIGDKHINVHGREEFTRFLEEELRKVKNAREEINDEKLVGDKVILDYSIHVNGRTLRVHLEIILIDGRMKVSRVKVK
Second: DEEYESMKIAVERLVQAHKTGDEDFLRELADPHVRVEIGDKRMHGWDRFDEWFKFVHHHLRIKDVDMKEFHIQGNKMHVRLELHGHYNGRDLILERHVILLKVNGRWILHVVQLG
The protease stability score of the first is lower: 2.14 for the first, 2.3 for the second.

Compared with “SEEDTMAKTLTKMEIELLRTGDEDLLWRLADPNVKLHINGRDLHGRETFEEWMKRFLEQVDVLRIEHREIRTAEGHLELDMHVDSYFDGVRFTTRLIVEVIKVDGRWFIRFREEQ”, “SEEERLTRELVEILLELFKTGDEDKWKEMVDPNVRVELIQGEKFIIDHGWESFFRFLLELGVDHREDKRKDAVNGRVHLTGQIDINGRRIDIHLDIDVVNGKVKSIRVELR” is lower in protease stability score: 1.21 for the first, 0.933 for the second.

First: DEHEEELKRILELIEHLIHTGDEDTMLHLADPNVRSHVNGRDRHGWNLYLRLLEELVWRLGIKHMEIHSTTAIDGRVIIHMRLHVGDKTIHVILLFQVVDGRVKSSSVEVHEE
Second: DEDEEDARRFLEILQHHMRTGDWDSLYRLLDPHVRLHIGDKHHHGREEIRKHLHHLRFKELENRHITVYDGRMHVHGRIQGKFDGRDDKYESEIVVLKVDGQWLIEEIHVK
The protease stability score of the first is lower: 1.44 for the first, 2.06 for the second.

Compared with “DEREEEAERILREWIKAVETGDFEQIMRYLDPNVRIIVNGKHHHGREILVHLIIRFLRELGADHITFHHDRIHLYDGVLVIDIHLEIRQGDKRYEFHEEIYIIKVNGRWIVRRVIIR”, “SEDETLAEEAVEEFEKHMETGDEDELIRLVDPHVKIHFNGRDIHGWKWIHVFLRDLGVDVKRIHVKDIEVFNGVVLLRGEFRFRFNGQDFSKDVENIIVKVDGRWFHHEIRIR” is lower in protease stability score: 2.8 for the first, 1.85 for the second.

Compared with “DEEERLRHEALKEWLETLVTGDERIIMEQLDPDARIDINGQEIHGMELFAKFMSEMGINVFDLKRTTIQGDKLRIEGVIKFNGKTHRVHVRSTKVDGRWRNKEVRVE”, “DEETEEIELAFHFFQHAYETGNEEVLMELADPDVKIDVNGRKLHGRERVWKFLIHHWHHLGIKHIHMDRIEIYGNKVVVDGEIKYGDKSDETIMYVVKVDGRWKLEMIEVK” is higher in protease stability score: 1.43 for the first, 1.47 for the second.
